Here are results for 50 sequences from the supplement of paper PMC9112550, “Optimization of the antimicrobial peptide Bac7 by deep mutational scanning” (BMC Biology, 2022).
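Note: peptides expressed intracellularly from a pBAD plasmid library in pooled LB shake-flask culture, induced with 0.3% L-arabinose, DNA abundance read by NGS, three biological replicates, DESeq2 with apeglm shrinkage.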

For this series, the system named is Escherichia coli TOP10. The experiment in a line: shrunken log2 fold change of peptide-encoding DNA abundance (4.5 h post-induction vs induction); higher = less antimicrobial activity (less host growth inhibition). The conditions noted are these: time post-induction: 4.5 h; library: site-saturation at positions 5, 18, 19, 20.
Regarding RRIRIRPPRLPRPRPRPTVTPRP, the “shrunken log2 fold change” value was -0.303.

Turning to RRIRERPPRLPRPRPRPRVCPRP, the “shrunken log2 fold change” value was 0.0408.

Take RRIRLRPPRLPRPRPRPPNVPRP: the “shrunken log2 fold change” value was found to be 0.0883.

In the case of RRIRIRPPRLPRPRPRPRPFPRP, the “shrunken log2 fold change” value is -0.253.

For RRIRDRPPRLPRPRPRPHWTPRP, the “shrunken log2 fold change” value was -0.179.

Consider RRIRVRPPRLPRPRPRPPCKPRP, for which the “shrunken log2 fold change” value was determined as 0.106.

Regarding RRIRYRPPRLPRPRPRPDVAPRP, the “shrunken log2 fold change” value stood at 0.105.

RRIRCRPPRLPRPRPRPQSGPRP: the “shrunken log2 fold change” value was -0.142.

Take RRIRFRPPRLPRPRPRPPVQPRP: the “shrunken log2 fold change” value turned out to be 0.3.

RRIRCRPPRLPRPRPRPVVYPRP: the “shrunken log2 fold change” value was -0.0321.

With RRIRDRPPRLPRPRPRPVLTPRP, the “shrunken log2 fold change” value came out at 0.31.

Turning to RRIRMRPPRLPRPRPRPQVYPRP, the “shrunken log2 fold change” value came to 0.0985.

Consider RRIRARPPRLPRPRPRPHGTPRP, for which the “shrunken log2 fold change” value was -0.0246.

RRIRARPPRLPRPRPRPQLWPRP: the “shrunken log2 fold change” value amounted to 0.569.

Regarding RRIRTRPPRLPRPRPRPMTWPRP, the “shrunken log2 fold change” value amounted to 0.0637.

Turning to RRIRARPPRLPRPRPRPHNVPRP, the “shrunken log2 fold change” value is -0.0333.

For RRIRWRPPRLPRPRPRPPWHPRP, the “shrunken log2 fold change” value was determined as 0.134.

On to RRIRIRPPRLPRPRPRPRGKPRP, for which the “shrunken log2 fold change” value is 0.086.

In the case of RRIRKRPPRLPRPRPRPSNCPRP, the “shrunken log2 fold change” value is -0.309.

As for RRIRYRPPRLPRPRPRPHHGPRP, the “shrunken log2 fold change” value came to 0.0431.

With RRIRPRPPRLPRPRPRPQWCPRP, the “shrunken log2 fold change” value was -0.0525.

On to RRIRCRPPRLPRPRPRPHNEPRP, for which the “shrunken log2 fold change” value was -0.535.

In the case of RRIRNRPPRLPRPRPRPCMFPRP, the “shrunken log2 fold change” value is -0.68.

Consider RRIRPRPPRLPRPRPRPDFYPRP, for which the “shrunken log2 fold change” value is -0.156.

As to RRIRARPPRLPRPRPRPISNPRP, the “shrunken log2 fold change” value is -0.174.

Regarding RRIRMRPPRLPRPRPRPGKPPRP, the “shrunken log2 fold change” value is 0.0496.

For RRIRDRPPRLPRPRPRPNATPRP, the “shrunken log2 fold change” value came out at 0.0821.

As to RRIRKRPPRLPRPRPRPIHQPRP, the “shrunken log2 fold change” value was -0.0102.

RRIRVRPPRLPRPRPRPEYGPRP: the “shrunken log2 fold change” value was -0.00905.

As for RRIRKRPPRLPRPRPRPIALPRP, the “shrunken log2 fold change” value came to 0.0143.

Consider RRIRGRPPRLPRPRPRPYMRPRP, for which the “shrunken log2 fold change” value was found to be 0.0456.

As to RRIRRRPPRLPRPRPRPKSQPRP, the “shrunken log2 fold change” value is 0.104.

Consider RRIRKRPPRLPRPRPRPFCKPRP, for which the “shrunken log2 fold change” value is 0.326.

Turning to RRIRPRPPRLPRPRPRPEVYPRP, the “shrunken log2 fold change” value was 0.0493.

Regarding RRIRKRPPRLPRPRPRPGICPRP, the “shrunken log2 fold change” value amounted to 0.0428.

With RRIRTRPPRLPRPRPRPYPSPRP, the “shrunken log2 fold change” value was -0.575.

For RRIRLRPPRLPRPRPRPMDCPRP, the “shrunken log2 fold change” value was -0.0117.

As for RRIRIRPPRLPRPRPRPYITPRP, the “shrunken log2 fold change” value is -1.34.

For the sequence RRIRKRPPRLPRPRPRPWRFPRP, the “shrunken log2 fold change” value stood at 0.234.

Regarding RRIRPRPPRLPRPRPRPQPHPRP, the “shrunken log2 fold change” value was found to be 0.138.

As to RRIRMRPPRLPRPRPRPDTMPRP, the “shrunken log2 fold change” value was found to be 0.28.

As for RRIRPRPPRLPRPRPRPHMWPRP, the “shrunken log2 fold change” value is -0.175.

On to RRIRDRPPRLPRPRPRPRAPPRP, for which the “shrunken log2 fold change” value is 0.359.

Regarding RRIRCRPPRLPRPRPRPRWVPRP, the “shrunken log2 fold change” value came out at 2.6.

As for RRIRVRPPRLPRPRPRPMNQPRP, the “shrunken log2 fold change” value is -0.0672.

RRIRLRPPRLPRPRPRPMNCPRP: the “shrunken log2 fold change” value is -0.507.

For RRIRSRPPRLPRPRPRPMFDPRP, the “shrunken log2 fold change” value was -0.0808.

Take RRIRTRPPRLPRPRPRPWFIPRP: the “shrunken log2 fold change” value was -0.64.

With RRIRRRPPRLPRPRPRPPEFPRP, the “shrunken log2 fold change” value came out at 0.614.

In the case of RRIRRRPPRLPRPRPRPAEMPRP, the “shrunken log2 fold change” value came out at 0.219.
